The source of these data is patent US20190256588A1 (BEIJING HANMI PHARM, published 2019).

This assay addresses T1, recombinant mouse IL-17A (mouse, UniProt Q62386 26-158, limits assumed).
T1 sequence (looked up): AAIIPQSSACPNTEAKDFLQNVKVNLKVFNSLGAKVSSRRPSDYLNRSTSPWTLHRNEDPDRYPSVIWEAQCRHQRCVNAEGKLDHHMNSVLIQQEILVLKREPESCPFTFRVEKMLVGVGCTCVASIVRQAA
The experiment in a line: ELISA, recombinant mouse IL-17A coated on the plate, HRP anti-human IgG, OD450nm. The method, then: Recombinant human IL-17A, monkey IL-17A, rat IL-17A and mouse IL-17A (all purchased from Sino Biological Inc.), were coated on a 96-well high-absorbing ELISA plate with a carbonate buffer solution with pH 9.6, the coating concentration was […], the coating amount was 100 μL per well, and the coating was carried out at 4° C. overnight. The plate was washed five times with PBST and blocked with 300 μL/well of PBST containing 1% BSA, and then incubated at 25° C. for 1 hour. The plate was washed five times with PBST. […] The plate was washed five times with PBST. Then, horseradish peroxidase-labeled anti-human IgG antibody (Chemicon, Catalog Number AP309P) 1:2000 diluted in PBST containing 1% BSA was added, 100 μL per well, incubated at 25° C. for 1 hour. The plate was washed five times with PBST. 100 μL/well of colorimetric substrate TMB was added and incubated at room temperature for 10 minutes. Color development was terminated by adding 100 μL/well of 1 M H₂SO₄. The absorbance at 450 nm was read on a microplate reader.

B1: anti-human IL-17A chimeric monoclonal antibody (antibody, human IgG1, kappa, V domains shown)
VH: DVQVQESGPGLVKPSQSLSLTCTVTGNSITSYYAWNWIRQFPGNKLEWMGYITYSGTTSYNPSLKSRISITRDTSKNQFFLQLNSVTTEDTATYYCAREEYDDIYAVDYWGQGTSVTVSS
VL: IIVMTQTPLSLPVSLGDQASISCRSSQSLVHSNGNTYLHWYLQKPGQSPKLLIYKVYNRFSGVPDRFSGSGSGTDFTLKISRVEAEDLGVYFCSQSTHFPTFGGGTKLEIKR
notes: expressed in 293F cells; also called Anti-human IL-17A Chimeric Antibody; chimeric anti-human IL-17A monoclonal antibody
For B1, the binding result was “no binding (tested: about 20 nM)”.
